Assay [1] concerns the target BbRAG1L NBD* domain (purified NBD* protein) (Branchiostoma belcheri). In words: SEC-MALS.
Assay [2] has as its target MBP-tagged core BbRAG1L (cBbRAG1L; aa 468-1136) (Branchiostoma belcheri). The assay is described as follows: SEC-MALS.

For the substance “BbRAG1L NBD* domain (purified NBD* protein) (domain or fragment)”, the stoichiometry N in assay [1] was found to be 2. With “MBP-tagged full length BbRAG2L (natural protein)”, in assay [2], the stoichiometry N (BbRAG2L per cBbRAG1L (2:2)) was 1.

The values are drawn from paper PMC6494689.
